# Patent publication US20250320281A1
# Columns and labels:
# [1] = target: HIV-1 92RW020 envelope glycoprotein (Env) on pseudovirus (HIV-1 isolate 92RW020 (clade A)); experiment: cell-based or functional assay
# [2] = target: HIV-1 JRCSF envelope glycoprotein (Env) on pseudovirus (HIV-1 isolate JRCSF (clade B)) (UniProt P20871); experiment: cell-based or functional assay
# [3] = target: HIV-1 Env of isolate DU422 (clade C pseudovirus) (HIV-1); experiment: cell-based or functional assay
# [4] = target: HIV-1 Env of isolate ZM214 (clade C pseudovirus) (HIV-1); experiment: cell-based or functional assay
# [5] = target: HIV-1 Env of isolate MG RM-D-018 (clade D), on pseudovirus (HIV-1); experiment: cell-based or functional assay
# [6] = target: HIV-1 Env of pseudovirus 93UG077 (subtype A) (HIV-1); experiment: cell-based or functional assay
# [7] = target: HIV-1 Env of pseudovirus MGRM-A-006 (subtype A) (HIV-1); experiment: cell-based or functional assay
# [8] = target: HIV-1 Env of pseudovirus MGRM-A-008 (subtype A) (HIV-1); experiment: cell-based or functional assay
# [9] = target: HIV-1 92RW020 Env (pseudovirus) (HIV-1 isolate 92RW020 (clade A)); experiment: cell-based or functional assay
# [10] = target: HIV-1 93UG077 Env (pseudovirus) (HIV-1 isolate 93UG077 (clade A)); experiment: cell-based or functional assay
# [11] = target: HIV-1 MGRM-D-001 Env (pseudovirus) (HIV-1 isolate MGRM-D-001 (clade D)); experiment: cell-based or functional assay
# [12] = target: Endo H treated JR-FL gp120 (HIV-1); experiment: ELISA, antigen-coated wells
# 1443_C16 (PG16) (TCN-116) (antibody), sequence (VH): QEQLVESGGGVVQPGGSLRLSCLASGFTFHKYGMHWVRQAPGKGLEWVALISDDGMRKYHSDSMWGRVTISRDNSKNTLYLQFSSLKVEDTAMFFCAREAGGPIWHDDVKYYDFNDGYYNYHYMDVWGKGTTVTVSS
# 1443_C16 (PG16) (TCN-116) (antibody), sequence (VL): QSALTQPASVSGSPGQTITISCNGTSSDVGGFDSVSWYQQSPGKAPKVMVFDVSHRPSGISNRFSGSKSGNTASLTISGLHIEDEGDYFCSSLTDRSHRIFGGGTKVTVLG
substance,measurement,setting,value
1496_C09 (PG9) (TCN-109) (antibody),neutralization IC50,[1],0.161 µg/mL
same,neutralization IC80,[1],1.04 µg/mL
same,neutralization IC90,[1],3.4 µg/mL
same,neutralization IC50,[2],0.0048 µg/mL
same,neutralization IC80,[2],0.0181 µg/mL
same,neutralization IC90,[2],0.0391 µg/mL
same,neutralization IC95,[2],0.0798 µg/mL
1443_C16 (PG16) (TCN-116) (antibody),"IC50 (neutralization, TZM-bl pseudovirus assay)",[3],0.59 µg/mL
same,"IC50 (neutralization, TZM-bl pseudovirus assay)",[4],> 25 µg/mL
PGV04 (antibody),"IC50 (µg/mL), pseudovirus neutralization",[5],17.5 µg/mL
same,"IC50, pseudovirus neutralization",[6],0.083 µg/mL
same,"IC50, pseudovirus neutralization",[7],0.244 µg/mL
same,"IC50, pseudovirus neutralization",[8],0.555 µg/mL
5123_A06 (PGT-125) (antibody),"Neutralization by PGT-125, IC50",[9],0.0028 µg/mL
same,"Neutralization by PGT-125, IC80",[9],0.011 µg/mL
same,"Neutralization by PGT-125, IC90",[9],0.0248 µg/mL
same,"Neutralization by PGT-125, IC95",[9],0.0526 µg/mL
same,"Neutralization by PGT-125, IC50",[10],0.0262 µg/mL
same,"Neutralization by PGT-125, IC80",[10],0.0926 µg/mL
same,"Neutralization by PGT-125, IC90",[10],0.206 µg/mL
same,"Neutralization by PGT-125, IC95",[10],0.487 µg/mL
same,"Neutralization by PGT-125, IC50",[11],2.31 µg/mL
same,"Neutralization by PGT-125, IC80",[11],> 10 µg/mL
same,"Neutralization by PGT-125, IC90",[11],> 10 µg/mL
same,"Neutralization by PGT-125, IC95",[11],> 10 µg/mL
4838_L06 (PGT-121) (antibody),EC50,[12],> 10 µg/mL
